Measured values: doi:10.1101/2025.11.19.685371v1 (bioRxiv, 2025)

Tests used:
Thioflavin T = type: physicochemical; details: 2.5 μM Aβ in PBS, 20 μM ThT, room temperature, shaking 100 rpm between reads
[1] = FCS size characterization; type: physicochemical; details: individual 30 s FCS measurements, 10 per sample; three preparations
[2] = system: immortalized human cortical astrocytes; assay: Cell viability of astrocytes; type: cell-based; details: 4 μM Aβ, 24 hours, 37°C; three biological replicates

Row | Substance | ThT aggregation t1/2 (Thioflavin T) [min] | CV of sizes within the same preparation [1] [%] | toxicity of Aβ to astrocytes (cell viability) [2]
1 | Aβ monomers: Aβ42 peptide with methionine as N-terminal residue, recombinantly expressed in E. coli, SEC-purified aggregate-free monomer | 79 ± 8 | – | –
2 | Aβ oligomers: stable pre-formed Aβ oligomers prepared by the protocol of Barghorn et al. with SDS | – | 17 ± 2 | significantly higher toxicity
